B1: D2, recombinant human immunoglobulin G1 (IgG1) (antibody, V domains shown)
VH: EVQLVESGGGLVQPGRSLTLSCGASGFTFEDYAMHWVRQAPGKGLEWVSGIDWNSGVIGYADSVKGRFIISRDNAKNSLYLHMRSLTAEDTALYYCAKDVYSESGSGSYYDYWGQGTLVTVSS
VL: QSVLTQPPSVSAAPGQKVAISCSGSTSNIGDNFVSWYQQFPGTAPKLLLYDDARRPSGIPDRFSGSKSGTSATLGITGLQTGDEAVYFCSTWDNSLNVVLFGGGTKLTVL
B2: F61, recombinant human immunoglobulin G1 (IgG1) (antibody, V domains shown)
VH: EVQLVESGGGLVQPGGSLRLSCEASEIIVNRNYMNWVRQAPGKGLEWVSIIYPGGSTFYADSVKGRFTISRDNSKNTMYLQMNSLRAEDTAVYYCARSYGDFYVDFWGQGTLVTVSS
VL: QSVLTQPPSVSAAPGQKVTISCSGSSSNIGNNYVSWYQQLPGTAPKLLIYDNNKRPSGIPDRFSGSKSGTSATLGITGLQTGDEADYYCGTWDSSLSAWVFGGGTKLTVL

Columns and labels:
[1] = target: SARS-CoV-2 wild-type receptor-binding domain (WT-RBD) (SARS-CoV-2, UniProt P0DTC2 319-541); assay: ELISA
[2] = target: SARS-CoV-2 wild-type spike S1 subunit (WT-S1) (SARS-CoV-2); assay: ELISA

Binder	EC50 [1] [ng/mL]	EC50 [2] [ng/mL]
B1	4.41	3.53
B2	3.01	3.12

Source: article PMC9453709 (2022)
